Measured values: patent publication US7569579B2, “Cyclopropyl compounds as ccr5 antagonists” (SmithKline Beecham Corporation, priority 2002, dated 2009)

Target: T1, human CCR5 chemokine receptor (Homo sapiens, UniProt P51681)
T1 construct: host or cells: Chinese Hamster Ovary (CHO) cells; membranes prepared from the cell pellet
Experiment: CC-Chemokine Receptor-5 binding by scintillation proximity assay (CCR5 SPA), displacement of 125I-MIP1α
Details: standard compound, 14-point concentration-response curve in triplicate
Method: CC-Chemokine Receptor-5 Binding by Scintillation Proximity Assay (CCR5 SPA) Scintillation Proximity Assay for the Human CC-Chemokine Receptor, CCR-5
This protocol describes a high-throughput screen using SPA binding to identify compounds that inhibit binding of ^125I-MIP1α to the human CCR5 chemokine receptor.
Human CCR5 receptors were expressed in Chinese Hamster Ovary (CHO) cells, registration # 12025. Cells were grown in suspension and a 50 to 80 ml CCR5 cell pellet was prepared. […]
The saturation curve binding experiment is performed by adding varying amounts of [^125I]MIP1α (0-8.5 nM to membranes and beads in concentrations chosen from the optimal protein/bead ratio. The data is analyzed using a non-linear curve-fitting program. The Kd and Bmax are derived from the curve. […]

T1 sequence (P51681 whole entry): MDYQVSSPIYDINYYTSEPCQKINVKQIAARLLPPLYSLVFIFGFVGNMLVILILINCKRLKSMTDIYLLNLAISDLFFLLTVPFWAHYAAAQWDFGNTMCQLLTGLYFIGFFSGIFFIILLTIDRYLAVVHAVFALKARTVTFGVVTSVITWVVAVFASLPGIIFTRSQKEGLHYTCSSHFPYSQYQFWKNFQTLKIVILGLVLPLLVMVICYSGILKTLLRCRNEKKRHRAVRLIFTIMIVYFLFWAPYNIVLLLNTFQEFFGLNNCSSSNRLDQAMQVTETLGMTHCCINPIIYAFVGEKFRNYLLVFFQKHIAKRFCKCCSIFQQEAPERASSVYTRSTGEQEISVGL

For “MIP1α: standard compound of the CCR5 SPA; natural chemokine ligand of CCR5 (Peprotech)”, the “average historical pKi” value was 7.6.
